Reference: patent US20070020327A1
Where two headings read alike, the source gives them in different places. One block for each binder: values may come before it.

Assays:
[1] = molecular target: HLA-A*0301 (human); assay: competition with 125I-labelled standard peptide (941.12 [..]) for purified HLA-A*0301, gel filtration
[2] = molecular target: HLA-A*1101 (human); assay: competition with 125I-labelled standard peptide on purified HLA-A*1101, gel filtration
[3] = molecular target: HLA-A*0203 (human); assay: inhibition of 125I-labelled probe peptide binding to purified HLA, gel filtration; conditions: remark: other sources report otherwise
[4] = molecular target: HLA-A*0301 (human); assay: competition with 125I-labelled standard peptide for purified HLA-A*0301, gel filtration
[5] = molecular target: HLA-A*0201 (human); assay: inhibition of 125I-labelled standard peptide binding to purified HLA-A*0201, gel filtration
[6] = molecular target: HLA-A*0206 (human); assay: inhibition of 125I-labelled standard peptide binding to purified HLA-A*0206, gel filtration
[7] = molecular target: HLA-A*6802 (human); assay: competition with 125I-labelled standard peptide for purified HLA, gel filtration
[8] = molecular target: HLA-A*0201 (human); assay: as above
[9] = molecular target: HLA-A*0206 (human); assay: as above
[10] = molecular target: HLA-A*0202 (human); assay: competition with 125I standard peptide for purified HLA; gel filtration; conditions: remark: other sources report otherwise
[11] = molecular target: HLA-A*0202 (human); assay: competition with 125I-labelled standard peptide 941.01 for purified HLA, gel filtration; conditions: scale: ratio
[12] = molecular target: HLA-A*0203 (human); assay: as above; conditions: scale: ratio
[13] = molecular target: HLA-A*0201 (human); assay: as above; conditions: scale: ratio
[14] = molecular target: HLA-A*0206 (human); assay: as above; conditions: scale: ratio
[15] = molecular target: HLA-A*0301 (human); assay: competition with 125I-labelled standard peptide for purified HLA, gel filtration; conditions: scale: ratio
[16] = molecular target: HLA-A*1101 (human); assay: as above; conditions: scale: ratio
[17] = molecular target: HLA-A*0202 (human); assay: as above
[18] = molecular target: HLA-A*0203 (human); assay: as above
[19] = remark: other sources report otherwise

binding affinity ratio (IC50 of the standard peptide / IC50 of the test peptide) [1]: 0.0006
B1: … (PAP, position 39, 9 amino acids) (peptide)
peptide: TLVFRHGDR
modifications: not checked

binding affinity ratio (IC50 of standard peptide / IC50 of test peptide) [2]: 0.01
B2: PAP peptide LTELYFEK (position 315, 8 amino acids) (peptide)
peptide: LTELYFEK
modifications: not checked

binding affinity ratio (IC50 of standard peptide / IC50 of test peptide) [2]: 0.0002
B3: PAP peptide … (position 241, 10 amino acids) (peptide)
peptide: LSLLSLYGIH
modifications: not checked

IC50 [3]: 4.2 nM
B4: Peptide 1419.07 (HuK2.165) … (peptide)
peptide: FLRPRSLQCV
modifications: not checked

binding affinity ratio (IC50 of standard peptide / IC50 of test peptide) [4]: 0.0006
B5: PSM 557 peptide … (peptide)
peptide: ETYELVEKFY
modifications: not checked

binding affinity ratio (IC50 of the standard peptide / IC50 of the test peptide) [4, 19]: 0.011
B6: … (PSA, position 43) (peptide)
peptide: RAVCGGVLVH
modifications: not checked

binding affinity ratio (IC50 of standard peptide / IC50 of test peptide) [5]: 0.0001 | binding affinity ratio (IC50 of standard peptide / IC50 of test peptide) [6]: 0.002
B7: … (Kallikrein, position 17) (peptide)
peptide: AVPLIQSRI
modifications: not checked

binding affinity ratio (IC50 of the standard peptide / IC50 of the test peptide) [1]: 0.0002
B8: … (PSA, position 82, 9 amino acids) (peptide)
peptide: TGQVFQVSH
modifications: not checked

binding affinity ratio ([7]; scale: ratio): -0.0001 | binding affinity ratio ([8]; scale: ratio): 0.0003 | binding affinity ratio ([9]; scale: ratio): -0.0001
B9: PSA peptide SLFHPEDT (position 75, 8 amino acids) (peptide)
peptide: SLFHPEDT
modifications: not checked

IC50 [10]: 0.9 nM
B10: Peptide 1166.11 … (PAP.196) (peptide)
peptide: GLHGQDLFGI
modifications: not checked

binding affinity ratio (IC50 of standard peptide / IC50 of test peptide) [2, 19]: 0.0002
B11: PAP peptide … (position 81, 9 amino acids) (peptide)
peptide: LGEYIRKRY
modifications: not checked

binding affinity ratio (IC50 of standard peptide / IC50 of test peptide) [1]: 0.0005
B12: PSM.113 … (peptide)
peptide: YDVLLSYPNK
modifications: not checked

IC50 [3]: 250 nM
B13: Peptide 1419.15 (HuK2.177) … (peptide)
peptide: HLLSNDMCARA
modifications: not checked

binding affinity ratio (IC50 of standard peptide / IC50 of test peptide) [4]: 0.0005
B14: PSM 621 peptide … (peptide)
peptide: EMKTYSVSF
modifications: not checked

binding affinity ratio [11]: 0.0001 | binding affinity ratio [12]: 0.0002 | binding affinity ratio [13]: 0.0001 | binding affinity ratio [14]: 0.0001
B15: … (Kallikrein, position 246, 11 amino acids) (peptide)
peptide: VVHYRKWIKDT
modifications: not checked

binding affinity ratio (IC50 of standard peptide / IC50 of test peptide) [2]: 0.0002
B16: PAP peptide LVFRHGDR (position 40, 8 amino acids) (peptide)
peptide: LVFRHGDR
modifications: not checked

binding affinity ratio (IC50 of the standard peptide / IC50 of the test peptide) [4]: 0.0003 | binding affinity ratio [15]: 0.0003 | binding affinity ratio [16]: 0.0002
B17: … (PSM, position 721) (peptide)
peptide: PSKAWGEVKR
modifications: not checked

binding affinity ratio (IC50 of standard peptide / IC50 of test peptide) [4, 19]: 0.0002
B18: PAP 95 peptide … (peptide)
peptide: ESYKHEQVY
modifications: not checked

binding affinity ratio [11, 19]: 0.0018 | binding affinity ratio [12, 19]: 0.0001 | binding affinity ratio [13, 19]: 0.0003 | binding affinity ratio [14, 19]: 0.016
B19: … (Kallikrein, position 59, 9 amino acids) (peptide)
peptide: WVLTAAHCL
modifications: not checked

binding affinity ratio [11]: 0.0001 | binding affinity ratio [12]: 0.0002 | binding affinity ratio [13]: 0.0001 | binding affinity ratio [14]: -0.0001
B20: … (PSA, position 242, 11 amino acids) (peptide)
peptide: VVHYRKWIKDT
modifications: not checked

binding affinity ratio (IC50 of standard peptide / IC50 of test peptide) [2]: 0.0002
B21: PAP peptide … (position 81, 10 amino acids) (peptide)
peptide: LGEYIRKRYR
modifications: not checked

binding affinity ratio (IC50 of standard peptide / IC50 of test peptide) [17]: -0.0001 | binding affinity ratio (IC50 of standard peptide / IC50 of test peptide) [18]: -0.0001 | binding affinity ratio (IC50 of standard peptide / IC50 of test peptide) [7]: -0.0001 | binding affinity ratio (IC50 of standard peptide / IC50 of test peptide) [8]: -0.0001 | binding affinity ratio (IC50 of standard peptide / IC50 of test peptide) [9]: -0.0001
B22: PSA 125 PAELTDAV (peptide)
peptide: PAELTDAV
modifications: not checked

binding affinity ratio (IC50 of the standard peptide / IC50 of the test peptide) [1]: 0.0003
B23: … (PSM, position 361, 10 amino acids) (peptide)
peptide: TLRGAVEPDR
modifications: not checked
